We go through 14 sequences from the supplement of paper PMC10567573.

The data set in a line: protein stability index of a GFP-peptide fusion (GPS, HEK-293T) (PSI 1-6); higher = more stable.
Setting [1] is: treatment: DMSO, c terminus: a fixed tail appended.
Setting [2] is: treatment: MLN4924 1 uM, 8 h, c terminus: a fixed tail appended.

± gives the standard deviation.
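Note: 24-mer peptide tiles fused after GFP, lentivirally expressed, FACS-sorted into six equal bins by GFP/DsRed ratio, decoded by Illumina sequencing, PSI is the read-weighted mean bin number.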

For the sequence YLAYINAKSRAEAALEEESRQRQS [SMARCE1], the protein stability index under setting [1] was determined as 3.93 ± 0.33 and the protein stability index under setting [2] stood at 3.75 ± 0.33.

For YLDETCTCFVRDGKTYCKRDYVRL [ISL2], the protein stability index came to 2.68 ± 0.084 under setting [1] and 2.95 ± 0.3 under setting [2].

Take YLHPNSYSCACLASGSVLRLVDAV [HDAC6]: the protein stability index is, setting by setting: under setting [1], 2.82 ± 0.36; under setting [2], 2.32 ± 0.066.

On to YLNFIRGVVDSEDLPLNISREMLQ [HSP90AB1], for which the protein stability index by setting is: under setting [1], 2.69 ± 0.12; under setting [2], 3.09 ± 0.47.

Consider YMYYFQYLSKTYCVDATRETNRLG [KMT5A], for which the protein stability index under setting [1] was found to be 2.67 ± 0.47 and the protein stability index under setting [2] was 2.81 ± 0.66.

For YNDGVINLLEKFFEMKKGQCKDAL [SNAP91], the protein stability index by setting is: under setting [1], 2.31 ± 0.3; under setting [2], 2.34 ± 0.2.

As for YPASIVDEPTFKVLLKTADPRYEL [ZBED1], the protein stability index was 2.89 ± 0.26 under setting [1] and 3.27 ± 0.29 under setting [2].

Take YPVGWPPVQELPPSLRAPPPGGWP [ZMAT5]: the protein stability index runs as follows: under setting [1], 2.39 ± 0.88; under setting [2], 2.83 ± 0.69.

For the sequence YRQVPGSDPARYEFLWGPRAHAEI [MAGEA10], the protein stability index is 2.73 ± 0.24 under setting [1] and 2.91 ± 0.26 under setting [2].

In the case of YSFVLTNRGNSAGGLQHRVTAKTA [PTPRD], the protein stability index was 2.81 ± 0.29 under setting [1] and 2.97 ± 0.28 under setting [2].

For YSLLYLEHKGWYSWVLSMLYGFLL [CLPTM1], the protein stability index runs as follows: under setting [1], 2.18 ± 0.37; under setting [2], 2.26 ± 0.49.

Regarding YTGYCWCVTPNGRPISGTAVAHKT [SMOC2], the protein stability index is, setting by setting: under setting [1], 2.73 ± 0.55; under setting [2], 2.51 ± 0.13.

As for YTSSLACHRALQDAFSGLFWQPS [MNAT1], the protein stability index by setting is: (treatment: DMSO, c terminus: native) 2.29 ± 0.51; (treatment: MLN4924 1 uM, 8 h, c terminus: native) 2.01 ± 0.33.

Consider YYERVLKRKTFNKVLGHVNNILIS [GDAP1], for which the protein stability index is, setting by setting: under setting [1], 2.35 ± 0.35; under setting [2], 2.64 ± 0.7.
